The results in this text go back to patent publication US12503479B2, “Phospholipid-flavagline conjugates and methods of using the same for targeted cancer therapy” (Cellectar Biosciences, Inc., priority 2018, dated 2025).

Series [1] concerns A549 (human lung adenocarcinoma) cells. Put plainly: Cytotoxicity of parent compound versus PDC, tumor cells (Example 8). Format: cell-based. Conditions: increasing concentrations; for Cytotoxic potency to A549 cells versus NHDF cells (selectivity): FIG. 3. The protocol: (§1) A549 (human lung adenocarcinoma) cells and normal human dermal fibroblasts (NHDF) were plated in 96 well dishes overnight. […] The difference between the cytotoxicity of the PDC molecule for tumor cells and that of the normal cells may have indicated a potential to improve the parent molecules therapeutic index.

The nature of series [2]: Plasma stability, human.
Procedure: (§2) A small amount of molecule was exposed to plasma, and the plasma was then analyzed via HPLC or MS to determine if the molecule was degraded.
Series [3] is classed as in vivo, mice. On the procedure: Listed in Table 5 are the doses administered to the mice, and how many mice were alive after treatment (“3/3” indicates 3 out of 3 mice were alive). […] MTD for CLR 1865 was between 5 and 10 mg/kg.
Series [4] has as its system normal human dermal fibroblasts (NHDF). Description: Cytotoxicity of parent compound versus PDC, normal cells (Example 8). Conditions: increasing concentrations. Format: cell-based. The protocol:
as §1

Series [5] in a line: Plasma stability, mouse.
Procedure: as §2
The test system of series [6] is NHDF (normal human dermal fibroblasts). Description: cells. Format: cell-based.
Series [7] relates to A375 and A549 cells. Put plainly: Levels of FLV3 in cell lysate and growth media (LC/MS). The series is classed as cell-based, human. On the procedure: FIG. 11 is a graph of concentration versus time for FLV3 detected in the cytosol (normalized to the cytosolic volume) in A375 (human melanoma) and A549 (human lung adenocarcinoma) cell lines.
The levels of FLV3 in cell lysate and growth media were measured using LC/MS. […] Levels of intracellular FLV3 appeared to plateau at 24 hours, while extracellular levels of FLV3 continued to increase.

In series [8] the test system is HCT 116 cells (human colon cancer). Format: in vivo. On the set-up: dose or concentration left out as unconfirmed. Particulars: HCT 116 tumor model; three doses; FIG. 9.
Series [9] deals with A549 (human lung adenocarcinoma). Put plainly: cells. Particulars: various concentrations; A549 and NHDF; FIG. 8. The series is classed as cell-based.

Read-outs that look alike come from different tables or passages of the source. A value given as a limit tells only on which side of the number the result lay.

For the molecule `COc1ccc([C@]23Oc4cc(OCCCCN)cc(OC)c4[C@@]2(O)[C@@H](O)[C@@H](C(=O)O)[C@@H]3c2ccccc2)cc1` [FLV1, reference compound], in series [1], the “Cytotoxic potency to A549 cells versus NHDF cells (selectivity)” value (“Cytotoxic potency … (selectivity)” below) is “near equal potency to the A549 cells as it did to the NHDF cells”.
Consider `COc1ccc([C@@]23Oc4cc(OCCCCNC(=O)OCC(C)(C)SSCCCCCCCCCCCCCCCCCCOP(=O)([O-])OCC[N+](C)(C)C)cc(OC)c4[C@]2(O)[C@H](O)[C@H](C(=O)O)[C@H]3c2ccccc2)cc1` [CLR 1865], for which the “Cytotoxic potency in A549 cells relative to the parent molecule” value in series [1] is listed as “near similar potency to the parent molecule in A549 cells”. In addition, the “Cytotoxic potency … (selectivity)” value in [1] was “selectivity for the A549 cells”. Further, the “Human half-life” value in [2] is greater than 6.67 h. Besides, the Human plasma stability entry in series [2] is given as “excellent human plasma stability”. Moreover, the “Mice alive after treatment” value in series [3] (Dose 0.1 mg/kg) is recorded as 3/3; in [3] (Dose 0.25 mg/kg), 3/3; in series [3] (Dose 0.5 mg/kg) it was 3/3; in series [3] (Dose 1.0 mg/kg), 3/3; in series [3] (Dose 5.0 mg/kg), 3/3; in [3] (Dose 10.0 mg/kg) it was 2/3. Moreover, the “In vivo therapeutic index” value in [3] (mice) is no less than 12.5. In addition, in [3] (mice), the “Tolerability compared to FLV3 alone” value is reported as “excellent improvement in tolerability compared to FLV3 alone”. The “Cytotoxic effect on NHDF cells” value in [4] is listed as “almost no effect on NHDF cells until the highest concentrations”. The “Mouse half-life” value in [5] (mouse plasma) amounted to 3.32 h. In addition, the “Time stable in mouse plasma” value in [5] (mouse plasma) is 3.3 h. Moreover, in series [6] (from the NHDF value in parentheses), the “Therapeutic Index (TI) (value in parentheses)” value was 37.3. For the same molecule, the “Therapeutic Index (TI)” value in series [6] (not defined, equals NHDF IC50 over lowest tumor line IC50) was 11.64.
In the case of `COC(=O)[C@H]1[C@@H](O)[C@@]2(O)c3c(OC)cc(OCCCCNC(=O)OCC(C)(C)SSCCCCCCCCCCCCCCCCCCOP(=O)([O-])OCC[N+](C)(C)C)cc3O[C@@]2(c2ccc(OC)cc2)[C@@H]1c1ccccc1` [CLR 1852], in series [1], the “Cytotoxic potency in A549 cells relative to the parent molecule” value is on record as “near similar potency to the parent molecule in A549 cells”. Also, the “Cytotoxic potency … (selectivity)” value in series [1] is “selectivity for the A549 cells”. In addition, in [2], the “Human half-life” value was greater than 6.67 h. Also, in [2], the Human plasma stability entry was “excellent human plasma stability”. The “Mice alive after treatment” value in [3] (Dose 0.1 mg/kg), in [3] (Dose 0.25 mg/kg), in series [3] (Dose 0.5 mg/kg), in series [3] (Dose 1.0 mg/kg), in [3] (Dose 5.0 mg/kg) and in series [3] (Dose 10.0 mg/kg) was 3/3 throughout. Also, the “Maximum tolerated dose (MTD)” value in [3] (mice) is “did not achieve a maximum tolerated dose”. For the same molecule, the “Tolerability compared to FLV3 alone” value in [3] (mice) is on record as “excellent improvement in tolerability compared to FLV3 alone”. Also, the “In vivo therapeutic index” value in [3] (mouse, in vivo) is on record as “at least 25”. Moreover, the “Cytotoxic effect on NHDF cells” value in series [4] was “almost no effect on NHDF cells until the highest concentrations”. The “Mouse half-life” value in [5] (mouse plasma) was greater than 6.67 h. The “Time stable in plasma” value in series [5] (plasma, species not stated) was “at least 7 hours”. Also, in [7], the “Time at which levels of intracellular FLV3 plateau” value amounted to 24 h. Moreover, in series [7] (after 24 hours), the “Levels of FLV3 in the growth media” value is on record as “Moderate levels”. In addition, the “Levels of FLV3 in the cell lysate” value in series [7] (after 24 hours, FIG. 11) is “high levels”. Moreover, in series [8], the “Time from which tumor volume was reduced compared to vehicle” value is “around 27 days”. Also, the “Therapeutic Index (TI)” value in series [6] was determined as 360. The “Therapeutic Index (TI) (value in parentheses)” value in series [6] worked out at 915. The “Cytotoxic potency compared to FLV3 alone” value in series [9] was “modest loss in potency compared to FLV3 alone”.
